Source: patent US20240150810

Biological target: AMC-Ubiquitin, P62979

B1: recombinant USP22 (protein)
chain: MVSRPEPEGEAMDAELAVAPPGCSHLGSFKVDNWKQNLRAIYQCFVWSGTAEARKRKAKSCICHVCGVHLNRLHSCLYCVFFGCFTKKHIHEHAKAKRHNLAIDLMYGGIYCFLCQDYIYDKDMEIIAKEEQRKAWKMQGVGEKFSTWEPTKRELELLKHNPKRRKITSNCTIGLRGLINLGNTCFMNCIVQALTHTPLLRDFFLSDRHRCEMQSPSSCLVCEMSSLFQEFYSGHRSPHIPYKLLHLVWTHARHLAGYEQQDAHEFLIAALDVLHRHCKGDDNGKKANNPNHCNCIIDQIFTGGLQSDVTCQVCHGVSTTIDPFWDISLDLPGSSTPFWPLSPGSEGNVVNGESHVSGTTTLTDCLRRFTRPEHLGSSAKIKCSGCHSYQESTKQLTMKKLPIVACFHLKRFEHSAKLRRKITTYVSFPLELDMTPFMASSKESRMNGQYQQPTDSLNNDNKYSLFAVVNHQGTLESGHYTSFIRQHKDQWFKCDDAIITKASIKDVLDSEGYLLFYHKQFLEYE
  fluorescence signal generated by cleavage of the fluorogenic substrate AMC-Ubiquitin (in vitro deubiquitination assay, time course): fluorescence resulting from the liberation of AMC increased over time in a USP22-dependent manner
